Seven molecules from patent US20220220215A1 (CRESCENDO BIOLOGICS, published 2022) can be followed below.

The EC50 is the concentration that produces a half-maximal response. A lower EC50 goes with a more potent agent.

B1: TPP-982: CD137A -6GS-HSA2-6GS-PDA-His (bispecific antibody)
chain: EVQLVESGGGLVQPGGSLRLSCAASGFTLSNYWMNWVRQAPGKGLEWVANINQDGSERYYVDSVKGRFTISRDNAKNSLYLQMNSLRAEDTAVYYCARGGEGYGVDHYGLDVSGQGTTVTVSSGGGGSGGGGSGGGGSGGGGSGGGGSGGGGSEVQLVESGGGLVKPGGSLRLSCAASGFTFSNYNMNWVRQAPGKGLEWVSSISSAGTHIYYADSVKGRFTISRDNAKNSLYLQMNSLRAEDTAVYYCARDPHSTGWYKDFDYWGQGTLVTVSSGGGGSGGGGSGGGGSGGGGSGGGGSGGGGSEVQLVESGGGLVQPGRSLRLSCAASGFTFDDYALHWVRQAPGKDLEWVSGISWNGGSYGYADSVKGRFTISRDNAKNSLYLQMNSLRAEDTALYYCVREKGPGLTGSTADYYGLDAWGQGTMVTVSSAAAHHHHHH
notes: Single-chain VH fusion (CD137 VH, HSA VH, PD-1 VH), His tag
B2: TPP-983: CD137A -6GS-HSA2-6GS-PDA2-His (bispecific antibody)
chain: EVQLVESGGGLVQPGGSLRLSCAASGFTLSNYWMNWVRQAPGKGLEWVANINQDGSERYYVDSVKGRFTISRDNAKNSLYLQMNSLRAEDTAVYYCARGGEGYGVDHYGLDVSGQGTTVTVSSGGGGSGGGGSGGGGSGGGGSGGGGSGGGGSEVQLVESGGGLVKPGGSLRLSCAASGFTFSNYNMNWVRQAPGKGLEWVSSISSAGTHIYYADSVKGRFTISRDNAKNSLYLQMNSLRAEDTAVYYCARDPHSTGWYKDFDYWGQGTLVTVSSGGGGSGGGGSGGGGSGGGGSGGGGSGGGGSEVQLVESGGGVVRPGGSLRLSCAASGFTFDDYAMSWVRQAPGKGLEWVSGITWNAGSTGYADSVKGRFTISRDNAKNSLYLQMNSLRAEDTALYYCVRDKYSYAWSYDDFDIWGQGTMVTVSSAAAHHHHHH
notes: as for B1
B3: TPP-975: CD137D-6GS-PDA2-6GS-HSA2-His (bispecific antibody)
chain: EVQLVESGGGVVQPGGSLRLSCAASGFTFSNYGMHWVRQAPGKGLEWVAVISNDGNTKTYADSVKGRFTISRDNSKNTLYLQMNSLRAEDTAVYYCAQDETTTVTASYYFDYWGQGTLVTVSSGGGGSGGGGSGGGGSGGGGSGGGGSGGGGSEVQLVESGGGVVRPGGSLRLSCAASGFTFDDYAMSWVRQAPGKGLEWVSGITWNAGSTGYADSVKGRFTISRDNAKNSLYLQMNSLRAEDTALYYCVRDKYSYAWSYDDFDIWGQGTMVTVSSGGGGSGGGGSGGGGSGGGGSGGGGSGGGGSEVQLVESGGGLVKPGGSLRLSCAASGFTFSNYNMNWVRQAPGKGLEWVSSISSAGTHIYYADSVKGRFTISRDNAKNSLYLQMNSLRAEDTAVYYCARDPHSTGWYKDFDYWGQGTLVTVSSAAAHHHHHH
notes: Single-chain VH fusion (CD137 VH, PD-1 VH, HSA VH), His tag
B4: TPP-971: PDA2-6GS-HSA2-6GS-172E1-13-His (bispecific antibody)
chain: EVQLVESGGGVVRPGGSLRLSCAASGFTFDDYAMSWVRQAPGKGLEWVSGITWNAGSTGYADSVKGRFTISRDNAKNSLYLQMNSLRAEDTALYYCVRDKYSYAWSYDDFDIWGQGTMVTVSSGGGGSGGGGSGGGGSGGGGSGGGGSGGGGSEVQLVESGGGLVKPGGSLRLSCAASGFTFSNYNMNWVRQAPGKGLEWVSSISSAGTHIYYADSVKGRFTISRDNAKNSLYLQMNSLRAEDTAVYYCARDPHSTGWYKDFDYWGQGTLVTVSSGGGGSGGGGSGGGGSGGGGSGGGGSGGGGSEVQLVESGGGVVQPGGSLRLSCAASGFTFSNYGMHWVRQAPGKGLEWVAVISNDGNTKTYADSVKGRFTISRDNSKNTLYLQMNSLRAEDTAVYYCAQDETTTVTASYYFDYWGQGTLVTVSSAAAHHHHHH
notes: Single-chain VH fusion (PD-1 VH, HSA VH, CD137 VH), His tag
B5: TPP-1023: CD137A -6GS-HSA3-6GS-PDA-His (bispecific antibody)
chain: EVQLVESGGGLVQPGGSLRLSCAASGFTLSNYWMNWVRQAPGKGLEWVANINQDGSERYYVDSVKGRFTISRDNAKNSLYLQMNSLRAEDTAVYYCARGGEGYGVDHYGLDVSGQGTTVTVSSGGGGSGGGGSGGGGSGGGGSGGGGSGGGGSEVQLLESGGGLVKPGGSLRLSCAASGFTVSSYTMNWVRQAPGKGLEWVSSISSSGRYIYYADSVKGRFTISRDNAKNSLYLQMNSLRAEDTAVYYCARDPRMVGNPHEFDIWGQGTMVTVSSGGGGSGGGGSGGGGSGGGGSGGGGSGGGGSEVQLVESGGGLVQPGRSLRLSCAASGFTFDDYALHWVRQAPGKDLEWVSGISWNGGSYGYADSVKGRFTISRDNAKNSLYLQMNSLRAEDTALYYCVREKGPGLTGSTADYYGLDAWGQGTMVTVSSAAAHHHHHH
notes: as for B1
B6: TPP-985: CD137D -6GS-HSA2-2-6GS-PDA2-His (bispecific antibody)
chain: EVQLVESGGGVVQPGGSLRLSCAASGFTFSNYGMHWVRQAPGKGLEWVAVISNDGNTKTYADSVKGRFTISRDNSKNTLYLQMNSLRAEDTAVYYCAQDETTTVTASYYFDYWGQGTLVTVSSGGGGSGGGGSGGGGSGGGGSGGGGSGGGGSEVQLVESGGGLVKPGGSLRLSCAASGFTFSNYNMNWVRQAPGKGLEWVSSISSAGTHIYYADSVKGRFTISRDNAKNSLYLQMNSLRAEDTAVYYCARDPHSTGWYKDFDYWGQGTLVTVSSGGGGSGGGGSGGGGSGGGGSGGGGSGGGGSEVQLVESGGGVVRPGGSLRLSCAASGFTFDDYAMSWVRQAPGKGLEWVSGITWNAGSTGYADSVKGRFTISRDNAKNSLYLQMNSLRAEDTALYYCVRDKYSYAWSYDDFDIWGQGTMVTVSSAAAHHHHHH
notes: as for B1
B7: TPP-984: CD137D -6GS-HSA2-6GS-PDA-His (bispecific antibody)
chain: EVQLVESGGGVVQPGGSLRLSCAASGFTFSNYGMHWVRQAPGKGLEWVAVISNDGNTKTYADSVKGRFTISRDNSKNTLYLQMNSLRAEDTAVYYCAQDETTTVTASYYFDYWGQGTLVTVSSGGGGSGGGGSGGGGSGGGGSGGGGSGGGGSEVQLVESGGGLVKPGGSLRLSCAASGFTFSNYNMNWVRQAPGKGLEWVSSISSAGTHIYYADSVKGRFTISRDNAKNSLYLQMNSLRAEDTAVYYCARDPHSTGWYKDFDYWGQGTLVTVSSGGGGSGGGGSGGGGSGGGGSGGGGSGGGGSEVQLVESGGGLVQPGRSLRLSCAASGFTFDDYALHWVRQAPGKDLEWVSGISWNGGSYGYADSVKGRFTISRDNAKNSLYLQMNSLRAEDTALYYCVREKGPGLTGSTADYYGLDAWGQGTMVTVSSAAAHHHHHH
notes: as for B1

The first assay concerns the target T1, human CD137 expressed on CHO cells (human, UniProt Q07011 18-255).
T1 construct: also called CHO huCD137; CHO human CD137 cells
Nature of the assay: FMAT/Mirrorball on CHO huCD137 cells. As to the method:
(§1) Binding of His-tagged molecules to CHO human CD137, CHO parent and CHO human PD1 cells was assessed using Fluorescence Microvolume Assay Technology (FMAT). All reagents were prepared in FMAT assay buffer (pH 7.4) containing PBS, 0.1% Bovine Serum Albumin, 0.05% Sodium Azide. […] Fluorescence emission was then measured on the TTP Mirrorball plate reader in the FL2 (502 nm-537 nm) and FL5 (677-800 nm) channels following excitation at 488 nm and 640 nm. Data was gated on FL5 perimeter and peak intensity and the FL2 median mean fluorescence intensity of the gated data used for determination of VH binding. Monovalent CD137 specific Humabody® VH, and trispecific molecules with a CD137 binding arm bound to CHO CD137 expressing cells. Trispecific Humabody® VH, with a PD1 binding arm bound to PD1 expressing cells.
With B1, the 50% effective concentration (EC50) is 89.6 pM.
With B2, it took 44.3 pM to reach a half-maximal effect (EC50).
Same read-out and setting: then B3, with 390 pM; and B4, with 223 pM.
Still for that read-out and setting: then B5, with 145 pM.
Same read-out and setting: then B6, with 382 pM; and B7, with 314 pM.

The next assay addresses T2, human PD-1 expressed on CHO cells (human, UniProt Q15116 21-288).
T2 construct: also called CHO huPD1; CHO human PD1 cells
As to the kind of experiment: FMAT/Mirrorball on CHO huPD1 cells. The protocol: as §1
For the molecule B1, a half-maximal effect (EC50) was put at 332 pM.
The same measure, in the same setting: then B2, with 240 pM; and B3, with 792 pM; and B4, with 414 pM.
Same read-out and setting: then B5, with 626 pM; and B6, with 541 pM.
For B7, the EC50 was 264 pM.
